Measured values taken from patent US20210340231A1 (FAPON BIOTECH, published 2021).
Where a chain is given by its changes, count along the chain named.

B1: Mutation 1-1 (antibody, V domains shown)
VH: EVQLQQSGAELVKPGASVKLSCTASGFNLKDYYMHWMKQRTEQGLDWIGRIDPEDAETKYAPEFQGKATITADTSSNTAYLQLSTLTSEDTAVYYCARYYSSYLPFVYWGQGTLVTASA
VL: DVVMTQTPLSLSVSLGDQASISCRSSQSILYSNRHTYLHWYLQKPGQSPKLLIFQLSNRFSGVPDRFSGSGSGTDFTLKINRVEAEDLGVYFCSQSTHLPYTFGSGTKLEIKR
notes: built as for Mutation 1
B2: Mutation 1-12 (antibody, V domains shown)
VH: B1 VH with Y33F, A56G
VL: B1 VL
notes: built as for Mutation 1
B3: Mutation 1-29 (antibody, V domains shown)
VH: B1 VH with A56G, L104V
VL: B1 VL with I29L, L56V
notes: built as for Mutation 1
B4: Mutation 1-5 (antibody, V domains shown)
VH: B1 VH with A56G, K59R, L104I
VL: B1 VL with L30I, L56I, L99I, Y101F
notes: built as for Mutation 1
B5: Mutation 1-20 (antibody, V domains shown)
VH: B1 VH with Y33F, A56G, L104V
VL: B1 VL with I29L, L30I, L56V, L99I, Y101F
notes: built as for Mutation 1
B6: Mutation 1-21 (antibody, V domains shown)
VH: B1 VH
VL: B1 VL with I29L, Y101F
notes: built as for Mutation 1
B7: Mutation 1-19 (antibody, V domains shown)
VH: B1 VH with L29I, A56G, K59R
VL: B1 VL with I29L, L30I, L99I, Y101F
notes: built as for Mutation 1
B8: Mutation 1-30 (antibody, V domains shown)
VH: B1 VH with L29I, Y33F, K59R
VL: B1 VL with L30I, L99I, Y101F
notes: built as for Mutation 1
B9: Mutation 1-27 (antibody, V domains shown)
VH: B1 VH with L29I, K59R, L104I
VL: B1 VL with I29L, L30I, L56I, L99I
notes: built as for Mutation 1
B10: Mutation 1-17 (antibody, V domains shown)
VH: B1 VH with K59R
VL: B1 VL with L30I, L99I
notes: built as for Mutation 1
B11: Mutation 1-13 (antibody, V domains shown)
VH: B1 VH with K59R, L104V
VL: B1 VL with I29L, L30I, L56V, Y101F
notes: built as for Mutation 1
B12: Mutation 1-39 (antibody, V domains shown)
VH: B1 VH with Y33F, A56G, K59R, L104V
VL: B1 VL with I29L, L30I, L56V
notes: built as for Mutation 1
B13: Mutation 1-3 (antibody, V domains shown)
VH: B1 VH with L29I, A56G
VL: B1 VL with I29L, L99I
notes: built as for Mutation 1
B14: Mutation 1-22 (antibody, V domains shown)
VH: B1 VH with L29I, Y33F, A56G, K59R, L104V
VL: B1 VL with L30I, L56V
notes: built as for Mutation 1
B15: Mutation 1-7 (antibody, V domains shown)
VH: B1 VH with L29I, K59R, L104I
VL: B1 VL with I29L, L30I, L56I
notes: built as for Mutation 1
B16: Mutation 1-33 (antibody, V domains shown)
VH: B1 VH with L104V
VL: B1 VL with I29L, L30I, L56V, L99I, Y101F
notes: built as for Mutation 1
B17: Mutation 1-8 (antibody, V domains shown)
VH: B1 VH with Y33F, A56G, K59R
VL: B1 VL with I29L, L30I, Y101F
notes: built as for Mutation 1
B18: Mutation 1-28 (antibody, V domains shown)
VH: B1 VH with Y33F
VL: B1 VL with I29L, L30I, Y101F
notes: built as for Mutation 1
B19: Mutation 1-25 (antibody, V domains shown)
VH: B1 VH with A56G, K59R, L104I
VL: B1 VL with L30I, L56I
notes: built as for Mutation 1
B20: Mutation 1-36 (antibody, V domains shown)
VH: B1 VH with A56G, K59R
VL: B1 VL with L30I, L99I
notes: built as for Mutation 1
B21: Mutation 1-32 (antibody, V domains shown)
VH: B1 VH with Y33F, A56G, K59R, L104I
VL: B1 VL with L56I, Y101F
notes: built as for Mutation 1
B22: Mutation 1-10 (antibody, V domains shown)
VH: B1 VH with L29I, Y33F, K59R
VL: B1 VL with L30I
notes: built as for Mutation 1
B23: Mutation 1-2 (antibody, V domains shown)
VH: B1 VH with L29I, Y33F, A56G, K59R, L104V
VL: B1 VL with I29L, L30I, L56V, L99I, Y101F
notes: built as for Mutation 1
B24: Mutation 1-16 (antibody, V domains shown)
VH: B1 VH with Y33F, K59R, L104I
VL: B1 VL with I29L, L56I
notes: built as for Mutation 1
B25: Mutation 1-15 (antibody, V domains shown)
VH: B1 VH with L29I, A56G, K59R, L104V
VL: B1 VL with L30I, L56V, L99I
notes: built as for Mutation 1
B26: Mutation 1-35 (antibody, V domains shown)
VH: B1 VH with L29I, K59R
VL: B1 VL with L30I
notes: built as for Mutation 1
B27: Mutation 1-26 (antibody, V domains shown)
VH: B1 VH with L29I, Y33F, A56G
VL: B1 VL with Y101F
notes: built as for Mutation 1
B28: Mutation 1-9 (antibody, V domains shown)
VH: B1 VH with A56G, L104I
VL: B1 VL with I29L, L56I, L99I
notes: built as for Mutation 1

These binders were tested against T1, CTNI quality control recombinant protein (PK2-CTNI-1, 170120, produced by the applicant) (human, UniProt P19429 2-210, limits assumed) (assay: AMC sensor kinetics, antibody captured, cTnI analyte).
T1 construct: also called cardiac troponin I
T1 sequence (P19429 2-210 limits assumed): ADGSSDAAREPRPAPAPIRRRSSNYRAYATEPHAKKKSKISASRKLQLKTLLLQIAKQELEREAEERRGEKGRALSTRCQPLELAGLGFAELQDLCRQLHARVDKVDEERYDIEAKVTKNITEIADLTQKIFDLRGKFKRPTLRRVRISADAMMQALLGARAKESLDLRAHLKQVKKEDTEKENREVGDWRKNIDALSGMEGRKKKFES
Method: Using the AMC sensor, the purified antibody was diluted with PBST to 10 μg/ml, and the CTNI quality control recombinant protein (PK2-CTNI-1, 170120, produced by the applicant) was serially diluted with PBST to 400 nmol/ml, 200 nmol/ml, 100 nmol/ml, 50 nmol/ml, 25 nmol/ml, 12.5 nmol/ml, 6.25 nmol/ml, and 0 nmol/ml.
Work on B1 yielded a Kd of 0.865 nM, a koff of 0.000311 s⁻¹ and a kon of 359000 M⁻¹ s⁻¹.
B2 showed a Kd of 0.834 nM, a koff of 0.000258 s⁻¹ and a kon of 309000 M⁻¹ s⁻¹.
Work on B3 yielded a Kd of 0.698 nM, a koff of 0.000115 s⁻¹ and a kon of 165000 M⁻¹ s⁻¹.
With B4 the Kd was 0.623 nM, the koff was 0.0001 s⁻¹ and the kon was 161000 M⁻¹ s⁻¹.
B5 gave a Kd of 0.945 nM, a koff of 0.000158 s⁻¹ and a kon of 167000 M⁻¹ s⁻¹.
B6 showed a Kd of 0.676 nM, a koff of 0.000477 s⁻¹ and a kon of 705000 M⁻¹ s⁻¹.
Work on B7 yielded a Kd of 0.487 nM, a koff of 0.000191 s⁻¹ and a kon of 393000 M⁻¹ s⁻¹.
B8 gave a Kd of 0.669 nM, a koff of 0.000362 s⁻¹ and a kon of 541000 M⁻¹ s⁻¹.
Work on B9 yielded a Kd of 0.85 nM, a koff of 0.000844 s⁻¹ and a kon of 993000 M⁻¹ s⁻¹.
B10 was tested, and the Kd was 0.722 nM, the koff was 0.000565 s⁻¹ and the kon was 782000 M⁻¹ s⁻¹.
For B11, the Kd was 0.806 nM, the koff was 0.000251 s⁻¹ and the kon was 311000 M⁻¹ s⁻¹.
B12 gave a Kd of 0.756 nM, a koff of 0.000469 s⁻¹ and a kon of 620000 M⁻¹ s⁻¹.
For B13, the Kd was 0.676 nM, the koff was 0.000122 s⁻¹ and the kon was 181000 M⁻¹ s⁻¹.
With B14 the Kd was 0.725 nM, the koff was 0.000215 s⁻¹ and the kon was 297000 M⁻¹ s⁻¹.
Work on B15 yielded a Kd of 0.804 nM, a koff of 0.00056 s⁻¹ and a kon of 697000 M⁻¹ s⁻¹.
B16 gave a Kd of 0.986 nM, a koff of 0.000881 s⁻¹ and a kon of 894000 M⁻¹ s⁻¹.
With B17 the Kd was 0.303 nM, the koff was 2.58e-05 s⁻¹ and the kon was 85100 M⁻¹ s⁻¹.
With B18 the Kd was 0.189 nM, the koff was 0.000101 s⁻¹ and the kon was 536000 M⁻¹ s⁻¹.
For B19, the Kd was 0.97 nM, the koff was 0.000659 s⁻¹ and the kon was 679000 M⁻¹ s⁻¹.
B20 showed a Kd of 0.809 nM, a koff of 0.000452 s⁻¹ and a kon of 559000 M⁻¹ s⁻¹.
B21 gave a Kd of 0.509 nM, a koff of 8.4e-05 s⁻¹ and a kon of 165000 M⁻¹ s⁻¹.
For B22, the Kd was 0.922 nM, the koff was 0.000413 s⁻¹ and the kon was 448000 M⁻¹ s⁻¹.
B23 showed a Kd of 0.623 nM, a koff of 0.000268 s⁻¹ and a kon of 430000 M⁻¹ s⁻¹.
B24 showed a Kd of 0.662 nM, a koff of 0.000101 s⁻¹ and a kon of 152000 M⁻¹ s⁻¹.
For B25, the Kd was 0.917 nM, the koff was 0.000245 s⁻¹ and the kon was 267000 M⁻¹ s⁻¹.
Binder B26 has a Kd of 0.574 nM, a koff of 0.000276 s⁻¹ and a kon of 480000 M⁻¹ s⁻¹.
In the case of B27, the Kd is reported as 0.692 nM, the koff is reported as 0.00023 s⁻¹ and the kon is reported as 333000 M⁻¹ s⁻¹.
In the case of B28, the Kd is reported as 0.866 nM, the koff is reported as 9.18e-05 s⁻¹ and the kon is reported as 106000 M⁻¹ s⁻¹.
